US20110152352A1 (TUFTS UNIVERSITY, published 2011)

B1: RNA helicase p68 (human p68 cDNA construct, expressed in transfected Cos7 cells) (enzyme, UniProt P17844 1-614, looked up)
chain: MSGYSSDRDRGRDRGFGAPRFGGSRAGPLSGKKFGNPGEKLVKKKWNLDELPKFEKNFYQEHPDLARRTAQEVETYRRSKEITVRGHNCPKPVLNFYEANFPANVMDVIARQNFTEPTAIQAQGWPVALSGLDMVGVAQTGSGKTLSYLLPAIVHINHQPFLERGDGPICLVLAPTRELAQQVQQVAAEYCRACRLKSTCIYGGAPKGPQIRDLERGVEICIATPGRLIDFLECGKTNLRRTTYLVLDEADRMLDMGFEPQIRKIVDQIRPDRQTLMWSATWPKEVRQLAEDFLKDYIHINIGALELSANHNILQIVDVCHDVEKDEKLIRLMEEIMSEKENKTIVFVETKRRCDELTRKMRRDGWPAMGIHGDKSQQERDWVLNEFKHGKAPILIATDVASRGLDVEDVKFVINYDYPNSSEDYIHRIGRTARSTKTGTAYTFFTPNNIKQVSDLISVLREANQAINPKLLQLVEDRGSGRSRGRGGMKDDRRDRYSAGKRGGFNTFRDRENYDRGYSSLLKRDFGAKTQNGVYSAANYTNGSFGSNFVSAGIQTSFRTGNPTGTYQNGYDSTQQYGSNVPNMHNGMNQQAYAYPATAAAPMIGYPMPTGYSQ
notes: Present in nuclear extracts or total lysates of Cos7 cells transfected with the p68 construct; also called Ddx5; DDX5

Key:
[1] = biological target: T1, GST-Smad4(FL) fusion protein (UniProt P08515 1-218 = GST; Q13485 1-552); assay: GST pull-down from nuclear extracts of p68-transfected Cos7 cells, immunoblot with anti-p68
T1 construct: also called s4

[2] = biological target: B1; assay: in vitro pull-down, data not shown
[3] = biological target: B1; assay: GST pull-down from nuclear extracts of p68-transfected Cos7 cells, immunoblot with anti-p68

T1 sequence (P08515 1-218, tags or fused parts left off): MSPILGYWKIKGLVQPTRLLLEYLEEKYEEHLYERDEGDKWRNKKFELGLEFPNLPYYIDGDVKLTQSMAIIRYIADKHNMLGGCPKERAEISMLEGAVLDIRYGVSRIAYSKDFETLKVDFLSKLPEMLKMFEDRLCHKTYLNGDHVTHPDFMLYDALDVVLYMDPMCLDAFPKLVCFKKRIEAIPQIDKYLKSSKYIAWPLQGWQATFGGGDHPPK

B1: no binding [1].

B2: inhibitor Smad6 (other, UniProt O43541 1-496, looked up)
chain: MFRSKRSGLVRRLWRSRVVPDREEGGSGGGGGGDEDGSLGSRAEPAPRAREGGGCGRSEVRPVAPRRPRDAVGQRGAQGAGRRRRAGGPPRPMSEPGAGAGSSLLDVAEPGGPGWLPESDCETVTCCLFSERDAAGAPRDASDPLAGAALEPAGGGRSREARSRLLLLEQELKTVTYSLLKRLKERSLDTLLEAVESRGGVPGGCVLVPRADLRLGGQPAPPQLLLGRLFRWPDLQHAVELKPLCGCHSFAAAADGPTVCCNPYHFSRLCGPESPPPPYSRLSPRDEYKPLDLSDSTLSYTETEATNSLITAPGEFSDASMSPDATKPSHWCSVAYWEHRTRVGRLYAVYDQAVSIFYDLPQGSGFCLGQLNLEQRSESVRRTRSKIGFGILLSKEPDGVWAYNRGEHPIFVNSPTLDAPGGRALVVRKVPPGYSIKVFDFERSGLQHAPEPDAADGPYDPNSVRISFAKGWGPCYSRQFITSCPCWLEILLNNPR
B2: no binding [2].

B3: GST-Smad1 (MH1 domain) fusion protein (other, UniProt Q15797 12-136, looked up)
chain: PAVKRLLGWKQGDEEEKWAEKAVDALVKKLKKKKGAMEELEKALSCPGQPSNCVTIPRSLDGRLQVSHRKGLPHVIYCRVWRWPDLQSHHELKPLECCEFPFGSKQKEVCINPYHYKRVESPVLP
notes: domain: MH1; also called s1-n219; amino-terminal MH1 domain of Smad1; not shown: glutathione S-transferase (GST) tag
B3: no binding [3].
